# According to the DeepSol protein solubility set:
# Assay: soluble on expression in E. coli; label from the status in PepcDB or PDB records
row,Sequence,soluble on expression in E. coli
1,GPGHMEGLRCVVLPEDLCHKFLQLAESNTVRGIETCGILCGKLTHNEFTITHVIVPKQSAGPDYCDMENVEELFNVQDQHDLLTLGWIHTHPTQTAFLSSVDLHTHCSYQLMLPEAIAIVCSPKHKDTGIFRLTNAGMLEVSACKKKGFHPHTKEPRLFSICKHVLVKDIKIIVLDLR,soluble
2,MGSDKIHHHHHHGASEVMWKDFRNEKTIDTVYLGSSFSQVTFNPYIIDEKLGWKSFNMGTPAQPLDQSYVALQNAIKEKKIKRAVLAYGIPTMEDTQNDNARITFAHAMKYGCSWKQKVKMDWDFITDKENINTESSINYLFPWISNSIEWTKTAIENNIKLKKHNNDATENMKTTEWYASYIGKGYAPILTGGFDYKNAITDNTKANYNCIISETAYCKLEKICRLCKDNEVEFIIVNTPKAPYDISMYGADEYFAINSRIEEICTKYGFSYYDFNLIKPQIFQICPEYLNNYEHLSKAGSEAFCNAFSNFIRLHDSGECMTNYFYNEEEYLDSVKDIVQCIKE,not soluble
3,MGKSYKEIIELLDCNQTTIWRNVKKYEEFGLDSLLQETRGGRNHAYMTVEEEKAFLARHLKATEAGEFVTIDALFQVYKKECG,not soluble
4,MGSDKIHHHHHHMGRYLERTEHISRFSQAHYFFSIDAPKSVKKEHILESVLNMAGSYVEYLGSGNKMETMEVAYYIGLNEFNASSIKHSIVKARENARGAKDSISSELWQSINTFYHSINLMDRATFNEMGIYEFSKNVLQNSSVIKGNIDNTLLHEEAWSIIHLGQHIERTTQVIRMIVTKINDINRIPKKEYYNMIELFENVNLLKSTEAYDMSKIFYREVPSVSHSLEFLTLNRNFPKSIVYNLRHIEHCLLRITNLSKHETNSLEFYASKLLCTVKYTSIQDIEKEPLAFYNDLLNKVAKLADMLETKYLQY,not soluble
5,MRLTEGIVVDSVLTFGKLRFSALRREVRKQNEDGTVSNEVKERTYNLKSSAQGRMIQVSIPANVPLREFAYDAEVELVNPIVDTVANYVFREGTTVNWFIKADDLVLKRQPNQGNSTNQIEGKK,not soluble
6,MSEKPAESAAAVADSATTTAPQSGKPETALPALIDTQATAETRALYRNLAKLRYKHLLFGHEDSLAYGVHWEGDMDRSDVRDVTGANPAVYGWELGGLELGHTANLDAVNFEKMQHWIKAGYSRGGVITISWHVFNPVSGGNSWDKTPAVHELIPGGARHATLKAYLDTFVAFNEGLADVDAQGNKHYPPIIFRPWHEHNGDWFWWGKGHASEQDYIALWRFTVHYLRDEKKLRNLIYAYSPDRSRIDMANFEAGYLYGYPGDAYVDIIGLDNYWDVGHEANTASADEQKAALTASLKQLVQIARSKGKIAALTETGNNRLTIDNFWTERLLGPISADADASEIAYVMVWRNANLAREKSEQFFAPFPGQATADDFKRFYQSEVVLFEDELPPLYR,soluble
7,MSLSHNSSLPPFTASGFAEDQGAVRIWRKDSGDNVHFLAVFSPWRSGDTTTREYRWQGDNLTLININVYSKPPVNIRARFDDRGDLSFMQRESDGEKQQLSNDQIDLYRYRADQIRQISDALRQGRVVLRQGRWHAMEQTVTTCEGQTIKPDLDSQAIAHIERRQSRSSVDVSVAWLEAPEGSQLLLVANSDFCRWQPNEKTFEGHHHHHH,not soluble
8,MKTFFIVASLLAVGLVLAEDSEEKSEVKDVKPWKKLDFKKREPEFLKEMSQDAKTAYFGIKFNPELTKAEKTRMLKEWADQYDVEDDMQKFLDAKKADCDKKKQERKDNYERLGDLIEKADEILDDQENTWNGANEKLEALVKDENRDVMKAFQSFYPFVGRDSEGPRHGHGHGHGHRFHHGRRFGRNIGGGAAPRYNGGGIGSGISIGENPRHHNGGIGSGISMGERHRDGESYDAYGNSKHHHKKHHGF,not soluble
9,MPEITLNCQKLPCPQPVLRCKALLDTEAPARCTVTVDNAPASENVARFLTSRGYDTSVHADPEGLWNIIAVRKDSAVAPSCDCEVMDARGIAAIAGTAEMPQKVTVFITSETLGSGDDVLGGKLMANFLATLPELGDELWRIVCVNGGVRLATREHPAVTHLNKLEAMGVDILVCGTCLDHFGLLSEKAVGQTTNMLDVVTSLQLATKVIRPLEHHHHHH,soluble
10,MRGSVSQEEVKKWAESLENLINHECGLAAFKAFLKSEYSEENIDFWISCEEYKKIKSPSKLSPKAKKIYNEFISVQATKEVNLDSCTREETSRNMLEPTITCFDEAQKKIFNLMEKDSYRRFLKSRFYLDLTNPSSCGAEKQKGAKSSADCTSLVPQCAHHHHHHP,soluble
11,MGSDKIHHHHHHMDKLRAIQLFVRLADLGSFTRVAEQVNSSKSMISKEISRLEADLGTRLLHRSTRSVQLTHVGEGYLQRAREILSKLDDADNFVQDLQQNLRGKLKINAPMALGITDLSHLFADFMKANPEIELDIHLGDESVDLVEQGFDLGFRASSQPIDSNYVGRPLTRFTYKVCVSPDYLKMHSTITHPRDLKEHNCFIYSYFQGKNVWPIEGGIEVKGSLRVNNTMFMMESIKQGLGIGFIPDFVCQQAINSGQVVEVLADSKKSMLTLYALYPVRNFVPPKLVQCIEYLEQWFADKDKP,not soluble
12,MGSDKIHHHHHHMQAEKLMQVKDAVLKLRQQLRAGQIYQSLPSRMATLIKQLPSTVTTTVTIPSDEEVLPLIATLHEQLKKGTLTAMSDDQIKLLMAHVGSLNPLVRDQGVYYLLNEALQQQVLTPEQLGDIFDQLIQDQMLFAHIDEPQNDAIYQRSFAILLLSVLLYADHAGLKFMTPARLDLVVEQMTVYILLEKDTRGFVGTTGWAHAYTHIGNILDELADESQLARADKLLLLAALIARYQKLTTPLIFGEPERLSTYLTLITNKHELYCDYLLTAMKDWHQQLMMHTRPASEAEWTQIFNRNRLLEALALHDDLPTAVVDYLDDELEFLG,not soluble
13,MGQVLPLVTRQGDRIAIVSGLRTPFARQATAFHGIPAVDLGKMVVGELLARSEIPAEVIEQLVFGQVVQMPEAPNIAREIVLGTGMNVHTDAYSVSRACATSFQAVANVAESLMAGTIRAGIAGGADSSSVLPIGVSKKLARVLVDVNKARTMSQRLKLFSRLRLRDLMPVPPAVAEYSTGLRMGDTAEQMAKTYGITREQQDALAHRSHQRAAQAWSDGKLKEEVMTAFIPPYKQPLVEDNNIRGNSSLADYAKLRPAFDRKHGTVTAANSTPLTDGAAAVILMTESRAKELGLVPLGYLRSYAFTAIDVWQDMLLGPAWSTPLALERAGLTMSDLTLIDMHEAFAAQTLANIQLLGSERFAREALGRAHATGEVDDSKFNVLGGSIAYGHPFAATGARMITQTLHELRRRGGGFGLVTACAAGGLGAAMVLEAE,soluble
14,GTKMEPMEYLVVDVPSEFQGAIIEKMGPRKGEMTSLQPMGETVRLEFVVPARGLIGLRGELLTETRGTAVMTHTFHDYAPYKGDIPGRKNGVLIAMELGETTAYALDALQPRGILFIGPGVEVYGGMI,not soluble
15,MGSDKIHHHHHHVGNLLVNLAMVLRQPTGISTYALSLLPYLRSLQPTLLSDRLYEGFDHQLISSRLCSDRGRRARLARLYWTQTQVPKLYRRLGSRLLFSPAPEAPIDRHCRSVVMVHDLRPLQLPSHSWQTYYFRWVVPKIVAQASHVLCNSEATATDLCHFYQLPAQKITPIYLGYDRQHYQPWSGKTSNYFLHIGQQFPHKNLERLIRAFAQLPTDYQLYLAGSRHASETPRLEQLVHSLGLRDRVQFLRYVDYADLPRLIGEAIALVYPSLWEGFGLPILEAMACGTPVITAHGSSLSEVGGEAVLYVDPYRIEAIAAAMRDLIDDSNLRQSLRDRGFQQASRFSWEATGKETCQVLEKFL,not soluble
16,MSLAAFQIANKTVGKDAPVFIIAEAGINHDGKLDQAFALIDAAAEAGADAVKFQMFQADRMYQKDPGLYKTAAGKDVSIFSLVQSMEMPAEWILPLLDYCREKQVIFLSTVCDEGSADLLQSTSPSAFKIASYEINHLPLLKYVARLNRPMIFSTAGAEISDVHEAWRTIRAEGNNQIAIMHCVAKYPAPPEYSNLSVIPMLAAAFPEAVIGFSDHSEHPTEAPCAAVRLGAKLIEKHFTIDKNLPGADHSFALNPDELKEMVDGIRKTEAELKQGITKPVSEKLLGSSYKTTTAIEGEIRNFAYRGIFTTAPIQKGEAFSEDNIAVLRPGQKPQGLHPRFFELLTSGVRAVRDIPADTGIVWDDILLKDSPFHEEGGSHHHHHH,soluble
17,MAITAQMVKELREKTGAGMMDCKKALTETNGDMEKAIDFLREKGIAKAAKKADRIAAEGLTFIETNGNDGLILELNSETDFVAKNEGFQTLIKELAAHLLANKPANVEEAMAQTMENGKKVEEHINEAIAKIGEKLTLRRFEIVSKTDADAFGAYLHMGGRIGVLTVLEGSTDEAAAKDVAMHIAAVNPKYIDRDAVTAEEVEHERQVLTQQALNEGKPEKIVAKMVEGRLGKFFEEICLLDQAFVKNPDMKVRQFVESKGGTLKGFVRYAVGEGIEKREDNFAEEVMNQVKGSN,not soluble
18,MISRPESSLSGLESSQEVQKKTWNPRNYSARLTENIGLPLILLEKHNPWPAYVAYISPAVTRITEKGWARDLEYIYAAEKNGKPVKRSKHSAVLLKRRKPSKPSELMLKETLSETMLPTWECSTIYVSPTFVPEPAQLQMDVREGPTSNYNKIIFSKRPAMRKLPFGLLQASKEMHTKD,soluble
19,MSLAQQSYPNKPIRVIVPFAAGSTTDIIARAIADKMGQSMGQSLVVDNRSGASGTIGQQAVATAPADGYTLMVHSSSHTVSPSTFAKLPFDTQADFAGVTPISSLPNALVIAPAKNIRTLQALLAAARARPGSINFASAGQGSATHLNAEKFRLAARIEATNIPFKGSAEAVTEVLSGRVDYYFSPIAPVIGQIRDGQLLALAVGSPKRAAALPEVPTTAEAGVPGSEFNFWIGMMAPAKTPRAIVERLHDEVVKALATPEVKERFLKLGADAWTLRPEQFDAYIKQEIASNAQLVQAAGLQVPQEGHHHHHH,soluble
20,SNATAYIIVGLTPKDAEKLQQYGARVASTLAKYSGEVLVKGSVEQLHGKFEHKAQVILEFPSREDAYNWYHSEEYQALISTRDLGMDSQFQLIG,soluble
21,KTKVGNQSPDVRFGLQNTFKIKDFTVNIDMDGAIGGTLISTTTQKMWWGGKHPKSTMYRQEEYDNGGKPVYVPEGVNIVSGEVTYDVNGNIVSDTRVYKKNETAVNIQTWAQNYPYRAVVRTEESELFANTFSRSFLKLRRVAVTYDLTKFIQSQFIKGLDVTVFGNNLAVLKKTPYLDPDFGASDGDLQDPSARYVGVSANIKF,not soluble
22,MKYFMGPHVWQRTIADLEALGHQRVDTFEQAEAYINTEPRPLRIPTIPESVGFVQHCFTGVNQLIDAHVITETGVRWANMAGGFAQPVAESALGLMLSQAHHHKAFALAGTWRVARELDRIQQWLHSVGEPRCVVIFGAGGIAKELIRLLEPFGMHVIAVNRSGRSVAGADETFAMKDAQGLWSRGDFIVNILPLTQETKGLVDRDVFAQMKPSAIFINVGRGATVVTDDLVDALQRGVIAGAGLEVVDPEPLPDSHALHSMPNCTITPHMAASDHVAELHVARIFDANAQAFTRGETMPTEVNPHLGY,not soluble
23,MSLTDRTIGEAAELLGVTTRTLRHWDSIGLLQPSWRTTTDYRLYTEDDVERALQILIYRAAGIGLKDIAEVLDQPDSANQHLRRQRELLVEQIGQLHRMVRAVDEILGKDAISVKEKIEIFGEDLPKYQEEAFQRWGEGHHHHHH,soluble
24,MSLMYGYPEKWLEGMTTGEGIAAELRLGIVNGHIAEGTLLTENQMAKQFNVSRSPIRDAFKLLQQNQLIQLERMGAHVLPFGEQEKKEMYDLRLMLESFAFSRVKNQERLPIVKEMKKQLEMMKVAVKFEDAESFTKHDFEFHETLIKASNHQYLNSFWSHLKPVMMALVLTSMRQRMQQNPQDFERIHHNHQVFIDAVEQYDSQILKEAFHLNFDDVGKDIEGFWLNEGHHHHHH,soluble
